Molecular target: the molecule itself
Assay: SEC

B1: Chlamydomonas reinhardtii alpha amylase 2 (AMA2), full-length recombinant enzyme (enzyme, UniProt A0A2K3DGK5 1-706, looked up)
chain: MDRSLLSRTSPRMQLGRPQQLPPPTVPLAQVPRLQRRCVVGSRVCQPVVAVRPGRASAGRGGRLVVSSVDMSNSPLSSMDAGEGLDIMFDNNSDAECTVVTVEGKDKAHLLMSLTGGFSSAGLTVISASITSDDGRVLDVFRVQTADGKKVPEEQFPSVREHILSVTATSSRSSMPAIYGIVAAAEVERLKPLRSQSTQNDVDALELAAAEMTQAVAELVATERDIIRMRASNADARTLQTKEANRTEAAAGLERKMAAMQAVLAARRNLATEPEKPKSPTEKLLETLKPPTPMRAAAGAGSGSGSEILLQAFNWESHRQKLYKQLMGRVKDISDAGFTGVWMPPPSDSVSPQGYLPRDLYSLDSAYGSEAELRELIAAFHQNNIKVIADIVVNHRCANSQGSDGKWNKFGGRLAWDASAICSNNPSFGGRGNPKQGDDYAAAPNIDHSQERIRNDIVQWMKYLRNSIGFDGWRFDFVRGYLGSYCKQYIDETVPAMAFGEYWDSCEYTDGVLNYNQDAHRQRTVNWCDSTGGTSAAFDFTTKGILQEAVGRREYWRLVDSQGRPPGVMGMWPSRAITFIDNHDTGSTLNHWPFPSRNLPEGYAYILTHPGTPCVFYDHFYQEENNLRKIILDLLKVRRRNGLNARSKVVMKKSAADVYAAMIDDKVAVKLGPGDWSPNQSGIKVNGKELKVAASGFQFAVWEGQH
How did the “stoichiometry N” value turn out when B1 was run?
Its value is 2.

Reference: paper PMC11190351 (Plant Direct, 2024)
